A word on the EC50: it is the concentration giving half of the maximal effect.

The target of experiment [1] is cynomolgus TIM-3 Fc fusion antigen (Sino Biologicals) (cynomolgus monkey (Macaca fascicularis)). As to the kind of experiment: ELISA; TIM-3 Fc fusion coated at 1 µg/ml, antibody titrated 2-fold from 1000 nM, HRP secondary.
For experiment [2] the target is unchanged. Description: ELISA; EC50 on cynomolgus TIM-3 over EC50 on human TIM-3. A general note: An ELISA detects its analyte on a solid surface through an enzyme-linked reagent.

Sequence of cynomolgus TIM-3 Fc fusion antigen (Sino Biologicals) (cynomolgus monkey (Macaca fascicularis)) (chain, as listed by the source limits assumed): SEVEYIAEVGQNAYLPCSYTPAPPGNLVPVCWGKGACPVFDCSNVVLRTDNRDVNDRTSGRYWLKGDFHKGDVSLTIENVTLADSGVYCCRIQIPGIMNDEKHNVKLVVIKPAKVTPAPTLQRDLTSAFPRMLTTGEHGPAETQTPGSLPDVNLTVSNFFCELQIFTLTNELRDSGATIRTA

B1: antibody 19416 (antibody, V domains shown)
VH: QVQLVESGPGLVKPSQTLSLTCTVSGGSINSGGYYWSWIRQHPGKGLEWIGYIYYSGSIYYNPSLRSRLTISVDTSKNQFSLKLSSVTAADTAVYYCATPYYYGSGSYGDYWGQGTLVTVSS
VL: DIQMTQSPATLSLSPGERATLSCRASQSVNNYLAWYQQKPGQAPRLLIYDASNRATGIPARFSGSGSGTDFTLTISSLEPEDFAVYYCQQRSNWPITFGQGTRLEIK
With B1, the EC50 in experiment [1] stood at 9.42 nM. The Ratio Cynomolgus/Human EC50 in experiment [2] came to 47.

The values above are taken from patent US20190276531A1.
